We go through two molecules from US20250059297A1.

Assay [1] addresses human TROP2 (hTROP2) on cells (human). The assay is described as follows: flow cytometry, NCI-N87 cells (express HER2 and TROP2). For orientation: A flow cytometer gives signals particle by particle.
For assay [2] the target is unchanged. The assay is described as follows: flow cytometry, NCI-H292 cells (express HER2 and TROP2).
The target is the same in assay [3]. The assay is described as follows: cell-based or functional assay.

human TROP2 (hTROP2) on cells (human), sequence (P09758 whole entry): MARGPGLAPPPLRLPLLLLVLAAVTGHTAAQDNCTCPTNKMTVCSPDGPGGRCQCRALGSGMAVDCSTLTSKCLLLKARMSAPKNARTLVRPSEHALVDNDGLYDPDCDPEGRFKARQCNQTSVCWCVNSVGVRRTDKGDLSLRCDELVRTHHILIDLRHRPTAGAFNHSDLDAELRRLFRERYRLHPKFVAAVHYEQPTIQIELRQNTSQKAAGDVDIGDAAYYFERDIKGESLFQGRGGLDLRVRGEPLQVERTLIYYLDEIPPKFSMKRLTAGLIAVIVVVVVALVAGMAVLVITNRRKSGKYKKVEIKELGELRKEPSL

B1: Sacituzumab govitecan antibody analog (antibody, INN chains, looked up, V domains shown)
VH: QVQLQQSGSELKKPGASVKVSCKASGYTFTNYGMNWVKQAPGQGLKWMGWINTYTGEPTYTDDFKGRFAFSLDTSVSTAYLQISSLKADDTAVYFCARGGFGSSYWYFDVWGQGSLVTVSS
VL: DIQLTQSPSSLSASVGDRVSITCKASQDVSIAVAWYQQKPGKAPKLLIYSASYRYTGVPDRFSGSGSGTDFTLTISSLQPEDFAVYYCQQHYITPLTFGAGTKVEIKR
In assay [1], B1 had a flow cytometry test result (%) of 98.7%. This molecule returned a flow cytometry test result (%) in assay [2] of 97.4%. In assay [3], this molecule returned an endocytosis, direct detection: MFI of 16600; an endocytosis, direct detection: Percentage of Positive Population of 70.1%; an endocytosis, indirect detection: MFI of 16100; an endocytosis, indirect detection: Percentage of Positive Population of 72.2%. In assay [3], this molecule showed an endocytosis: MFI of 23000 and an endocytosis: Percentage of Positive (%) of 51.2%.

B2: DS-1062 antibody analog (antibody, INN chains, looked up, V domains shown)
VH: QVQLVQSGAEVKKPGASVKVSCKASGYTFTTAGMQWVRQAPGQGLEWMGWINTHSGVPKYAEDFKGRVTISADTSTSTAYLQLSSLKSEDTAVYYCARSGFGSSYWYFDVWGQGTLVTVSS
VL: DIQMTQSPSSLSASVGDRVTITCKASQDVSTAVAWYQQKPGKAPKLLIYSASYRYTGVPSRFSGSGSGTDFTLTISSLQPEDFAVYYCQQHYITPLTFGQGTKLEIK
In the case of B2, in assay [3], the endocytosis: MFI is 21800 and the endocytosis: Percentage of Positive (%) was found to be 43.9%.
